Tests used:
[1] = biological target: T1, IgG-IL-2 (monovalent fusion of wild-type human IL-2 to a non-targeted, effector-silent human IgG1) (human, UniProt P60568 21-153); assay: SPR; steady state
[2] = biological target: T2, IgG-(IL-2)2 (bivalent fusion of two wild-type human IL-2 to a non-targeted, effector-silent human IgG1) (human, UniProt P60568 21-153); assay: SPR; steady state
[3] = biological target: T1, IgG-IL-2 (monovalent fusion of …); assay: SPR
[4] = biological target: T2, IgG-(IL-2)2 (bivalent fusion of two …); assay: SPR

Binder	Kd [1] [nM]	Kd [2] [nM]	koff [3] [s⁻¹]	koff [4] [s⁻¹]
murine IL-2Rβγ heterodimeric Fc fusion (knobs-into-holes), biotinylated (Fc fusion) chain 1: AVKNCSHLECFYNSRANVSCMWSHEEALNVTTCHVHAKSNLRHWNKTCELTLVRQASWACNLILGSFPESQSLTSVDLLDINVVCWEEKGWRRVKTCDFHPFDNLRLVAPHSLQVLHIDTQRCNISWKVSQVSHYIEPYLEFEARRRLLGHSWEDASVLSLKQRQQWLFLEMLIPSTSYEVQVRVKAQRNNTGTWSPWSQPLTFRTRPADPMKE chain 2: WSSKVLMSSANEDIKADLILTSTAPEHLSAPTLPLPEVQCFVFNIEYMNCTWNSSSEPQATNLTLHYRYKVSDNNTFQECSHYLFSKEITSGCQIQKEDIQLYQTFVVQLQDPQKPQRRAVQKLNLQNLVIPRAPENLTLSNLSESQLELRWKSRHIKERCLQYLVQYRSNRDRSWTELIVNHEPRFSLPSVDELKRYTFRVRSRYNPICGSSQQWSKWSQPVHWGSHTVEENPSLFALEA			0.00065	9.3e-05
cynomolgus IL-2Rβγ heterodimeric Fc fusion (knobs-into-holes), biotinylated (Fc fusion) chain 1: AVNGTSRFTCFYNSRANISCVWSQDGALQDTSCQVHAWPDRRRWNQTCELLPVSQASWACNLILGTPDSQKLTAVDIVTLRVMCREGVRWRMMAIQDFKPFENLRLMAPISLQVVHVETHRCNISWKISQASHYFERHLEFEARTLSPGHTWEEAPLMTLKQKQEWICLETLTPDTQYEFQVRVKPLQGEFTTWSPWSQPLAFRTKPAALGKDT chain 2: LNTTILTPNGNEDATTDFFLTSMPTDSLSVSTLPLPEVQCFVFNVEYMNCTWNSSSEPQPTNLTLHYWYKNSDNDKVQKCSHYLFSEEITSGCQLQKKEIHLYQTFVVQLQDPREPRRQATQMLKLQNLVIPWAPENLTLRKLSESQLELNWNNRFLNHCLEHLVQYRTDWDHSWTEQSVDYRHKFSLPSVDGQKRYTFRVRSRFNPLCGSAQHWSEWSHPIHWGSNSSKENPFLFALEA			0.00011	5.3e-05
murine IL-2Rα, monomeric, his-tagged (receptor) ELCLYDPPEVPNATFKALSYKNGTILNCECKRGFRRLKELVYMRCLGNSWSSNCQCTSNSHDKSRKQVTAQLEHQKEQQTTTDMQKPTQSMHQENLTGHCREPPPWKHEDSKRIYHFVEGQSVHYECIPGYKALQRGPAISICKMKCGKTGWTQPQLTCVDEREHHRFLASEESQGSRNSSPESETSCPITTTDFPQPTETTAMTETFVLTMEYKVAVASCLFLLISILLLSGLTWQHRWRKSRRTI	110	30		

The next lines start with the values.

Kd [1] [nM]	Kd [2] [nM]	koff [3] [s⁻¹]	koff [4] [s⁻¹]	Binder
15	5			human IL-2Rα, monomeric, his-tagged (receptor) ELCDDDPPEIPHATFKAMAYKEGTMLNCECKRGFRRIKSGSLYMLCTGNSSHSSWDNQCQCTSSATRNTTKQVTPQPEEQKERKTTEMQSPMQPVDQASLPGHCREPPPWENEATERIYHFVVGQMVYYQCVQGYRALHRGPAESVCKMTHGKTRWTQPQLICTGEMETSQFPGEEKPQASPEGRPESETSCLVTTTDFQIQTEMAATMETSIFTTEYQVAVAGCVFLLISVLLLSGLTWQRRQRKSRRTI
		3.8e-05	8.1e-06	human IL-2Rβγ heterodimeric Fc fusion (knobs-into-holes), biotinylated (Fc fusion) chain 1: AVNGTSQFTCFYNSRANISCVWSQDGALQDTSCQVHAWPDRRRWNQTCELLPVSQASWACNLILGAPDSQKLTTVDIVTLRVLCREGVRWRVMAIQDFKPFENLRLMAPISLQVVHVETHRCNISWEISQASHYFERHLEFEARTLSPGHTWEEAPLLTLKQKQEWICLETLTPDTQYEFQVRVKPLQGEFTTWSPWSQPLAFRTKPAALGKDT chain 2: LNTTILTPNGNEDTTADFFLTTMPTDSLSVSTLPLPEVQCFVFNVEYMNCTWNSSSEPQPTNLTLHYWYKNSDNDKVQKCSHYLFSEEITSGCQLQKKEIHLYQTFVVQLQDPREPRRQATQMLKLQNLVIPWAPENLTLHKLSESQLELNWNNRFLNHCLEHLVQYRTDWDHSWTEQSVDYRHKFSLPSVDGQKRYTFRVRSRFNPLCGSAQHWSEWSHPIHWGSNTSKENPFLFALEA
30	15			cynomolgus IL-2Rα, monomeric, his-tagged (receptor) ELCDDDPPKITHATFKAVAYKEGTMLNCECKRGFRRIKSGSPYMLCTGNSSHSSWDNQCQCTSSAARNTTKQVTPQPEEQKERKTTEMQSQMQLADQVSLPGHCREPPPWENEATERIYHFVVGQTVYYQCVQGYRALHRGPAESVCKMTHGKTRWTQPQLICTGETEPSQFPGEEEPQASPDGLPESETSRLVTTTDFRIQTEVAATMETFIFTTEYQ

— publication PMC4298360 (2015)
